The values that follow come from US9234036B2, “Modulation of activity of proneurotrophins” (H. Lundbeck A/S, priority 2006, dated 2016).

Assay [1] concerns the target T1, pro-dom-NGF (Homo sapiens, UniProt P01138, A35V).
T1 construct: pro-dom-NGF (residues Glu^1-Arg^102); made in house; host or cells: E. coli BL21/DE3
T1 sequence (P01138 19-121 A35V): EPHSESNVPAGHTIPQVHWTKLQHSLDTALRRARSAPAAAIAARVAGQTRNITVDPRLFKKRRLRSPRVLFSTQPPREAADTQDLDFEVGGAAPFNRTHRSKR
The assay is described as follows: SPR direct binding of sortilin peptides to immobilized pro-dom-NGF. As to conditions: concentration series of peptide, FIG. 18. The source says: (§1) FIG. 18: Surface plasmon resonance binding analysis of sortilin peptides to pro-dom-NGF and -BDNF. The direct interaction between sortilin peptides (as identified by SPOT analysis) and the pro-domains of NGF and BDNF was verified by surface plasmon resonance analysis using immobilized pro-dom-NGF and -BDNF. […] The numbering in this figure refers to the mature part of Sortilin.
A biosensor chip from Biacore (CM5, cat. no. BR-1000-14) was activated using the NHS/EDC method as described by supplier followed by coating with Sortilin to a protein densitiy of 79 fmol/mm2, and used for affinity measurements of the recombinant pro-domains of NGF and BDNF. Regeneration of the flow cell after each cycle of ligand binding experiment was performed by two 10 uL pulses of regeneration buffer (10 mM glycine-HCl, pH 4.0, 500 mM NaCl, 20 mM EDTA, and 0.005% Tween-20) and a single injection of 0.001% SDS. Fitting of sensorgrams for affinity estimations was performed using the Biaevaluation version 3.1. Following similar protocols, immobilization of pro-dom-NGF or pro-dom-BDNF was also performed on a CM5 biosensor chip using the NHS/EDC coupling kit according to manufactures instructions (Biacore, Sweden), giving similar surface densitites of immobilized protein (˜300 fmol/mm2). […]

Assay [2] addresses T2, pro-dom-BDNF (Homo sapiens, UniProt P23560).
T2 construct: pro-dom-BDNF (residues Ala^1-Arg^110); made in house; host or cells: E. coli BL21/DE3
T2 sequence (P23560 19-128 limits assumed): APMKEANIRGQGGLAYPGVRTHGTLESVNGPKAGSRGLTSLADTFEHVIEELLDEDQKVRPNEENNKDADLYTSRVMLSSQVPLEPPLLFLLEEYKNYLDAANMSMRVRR
Kind of assay: SPR direct binding of sortilin peptides to immobilized pro-dom-BDNF. As to conditions: for direct interaction with immobilized pro-dom-BDNF: concentration series of peptide, FIG. 18; for affinity towards pro-dom-BDNF compared with pro-dom-NGF: single peptide concentration, identical amounts of immobilized pro-dom-NGF and -BDNF.
Text: as §1
(§2) A biosensor chip from Biacore (CM5, cat. no. BR-1000-14) was activated using the NHS/EDC method as described by supplier followed by coating with Sortilin to a protein densitiy of 79 fmol/mm2, and used for affinity measurements of the recombinant pro-domains of NGF and BDNF. Regeneration of the flow cell after each cycle of ligand binding experiment was performed by two 10 uL pulses of regeneration buffer (10 mM glycine-HCl, pH 4.0, 500 mM NaCl, 20 mM EDTA, and 0.005% Tween-20) and a single injection of 0.001% SDS. Fitting of sensorgrams for affinity estimations was performed using the Biaevaluation version 3.1. Following similar protocols, immobilization of pro-dom-NGF or pro-dom-BDNF was also performed on a CM5 biosensor chip using the NHS/EDC coupling kit according to manufactures instructions (Biacore, Sweden), giving similar surface densitites of immobilized protein (˜300 fmol/mm2). […] This chip was subsequent used to examine the binding of 390 nM wild-type Sortilin domain in CaHBS buffer at a flow of 5 uL/min, which in the absence of any competing peptide gave a ˜300 RU signal.

The target of assay [3] is T3, p75-IgG-Fc chimeric protein (Homo sapiens, UniProt P08138).
T3 construct: purchased R&D systems (Oxon, UK)
The assay is described as follows: Surface plasmon resonance (BIAcore) binding to immobilized p75-IgG-Fc. As to conditions: 91.5 fmol/mm^2 immobilized p75-IgG-Fc; calculated from on and off rates. How it is done: (§3) FIG. 2: Characterization of NGF binding to p75, TrkA, and Sortilin as measured by surface plasmon resonance analysis (BIAcore). Binding of 50-500 nM NGF was measured to 91.5 fmol/mm^2 immobilized p75-IgG-Fc chimeric protein (upper panel), to 66 fmol/mm^2 immobilized TrkA-IgG-Fc (middle panel), and to 51 fmol/mm^2 purified Sortilin extracellular domain (lower panel). The on and off rates—100 to 600 seconds and 600 to 1000 seconds, respectively—were recorded and the Kd values for NGF binding were calculated to ˜1 nM for p75, ˜2 nM for TrkA, and ˜8 nM for Sortilin. […]
(§4) FIG. 3: Characterization of proNGF binding to p75, TrkA, and Sortilin as measured by surface plasmon resonance analysis (Biacore). Binding of 25-500 nM proNGF was measured to 91.5 fmol/mm^2 immobilized p75-IgG-Fc chimeric protein (upper panel), to 66 fmol/mm^2 immobilized TrkA-IgG-Fc (middle panel), and to 51 fmol/mm^2 purified Sortilin extracellular domain (lower panel). […]
(§5) FIG. 4: Characterization of binding of the proNGF propeptide to p75, TrkA, and Sortilin as measured by surface plasmon resonance analysis (Biacore). Binding of 25-500 nM propeptide was measured to 91.5 fmol/mm^2 immobilized p75-IgG-Fc chimeric protein (upper panel), to 66 fmol/mm^2 immobilized TrkA-IgG-Fc (middle panel), and to 51 fmol/mm^2 purified Sortilin extracellular domain (lower panel). […]

The target of assay [4] is T4, Sortilin binding to immobilized pro-dom-BDNF (Homo sapiens, UniProt P23560).
T4 construct: pro-dom-BDNF (residues Ala^1-Arg^110); made in house; host or cells: pro-dom-BDNF: E. coli BL21/DE3; Sortilin: EBNA293 cells
T4 sequence (P23560 19-128 limits assumed): T2 sequence (P23560 19-128 limits assumed)
The assay is described as follows: SPR competition: Sortilin binding to immobilized pro-dom-BDNF in presence of sortilin peptide. The procedure: FIG. 19: Surface plasmon resonance analysis of competition studies by the sortilin peptides.
as §2

Assay [5] deals with T5, TrkA-IgG-Fc (Homo sapiens, UniProt P04629).
T5 construct: purchased R&D systems (Oxon, UK)
Kind of assay: Surface plasmon resonance (BIAcore) binding to immobilized TrkA-IgG-Fc. As to conditions: 66 fmol/mm^2 immobilized TrkA-IgG-Fc; calculated from on and off rates. The procedure: as §3, §4, §5

Assay [6] deals with T6, proNGF binding to immobilized Sortilin (Homo sapiens, UniProt Q99523).
T6 construct: 51 fmol/mm^2 purified Sortilin extracellular domain; made in house; host or cells: Sortilin: stably transfected CHO cells; proNGF: E. coli
T6 sequence (Q99523 78-755 limits assumed): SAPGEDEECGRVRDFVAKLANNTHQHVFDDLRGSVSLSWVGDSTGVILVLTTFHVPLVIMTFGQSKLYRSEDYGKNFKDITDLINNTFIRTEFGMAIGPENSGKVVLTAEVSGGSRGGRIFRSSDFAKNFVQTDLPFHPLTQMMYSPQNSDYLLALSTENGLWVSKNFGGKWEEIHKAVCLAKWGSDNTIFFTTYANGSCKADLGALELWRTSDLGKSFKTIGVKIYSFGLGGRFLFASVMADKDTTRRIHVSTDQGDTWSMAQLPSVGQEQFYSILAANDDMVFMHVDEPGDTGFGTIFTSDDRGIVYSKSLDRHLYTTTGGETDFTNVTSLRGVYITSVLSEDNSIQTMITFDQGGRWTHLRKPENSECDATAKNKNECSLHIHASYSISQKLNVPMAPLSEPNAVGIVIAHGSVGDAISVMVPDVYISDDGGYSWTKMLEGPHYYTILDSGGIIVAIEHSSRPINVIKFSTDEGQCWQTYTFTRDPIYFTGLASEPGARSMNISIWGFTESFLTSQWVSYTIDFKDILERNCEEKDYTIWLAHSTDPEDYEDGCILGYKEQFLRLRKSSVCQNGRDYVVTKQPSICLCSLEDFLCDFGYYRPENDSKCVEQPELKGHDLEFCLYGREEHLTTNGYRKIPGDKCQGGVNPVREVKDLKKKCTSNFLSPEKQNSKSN
The assay is described as follows: Inhibition of proNGF binding to immobilized Sortilin (Biacore). The settings on record: 5 μM inhibitor prebound, then coinjection; 51 fmol/mm^2 Sortilin (FIG. 6). On the technique in general: SPR reads the build-up and loss of mass on a sensor chip optically.

Assay [7] addresses T7, Sortilin extracellular domain (Homo sapiens, UniProt Q99523).
T7 construct: 51 fmol/mm^2 purified Sortilin extracellular domain; made in house; host or cells: stably transfected CHO cells
T7 sequence (Q99523 78-755 limits assumed): T6 sequence (Q99523 78-755 limits assumed)
The assay is described as follows: Surface plasmon resonance (BIAcore) binding to immobilized purified Sortilin extracellular domain. As to conditions: 51 fmol/mm^2 purified Sortilin extracellular domain; calculated from on and off rates. The procedure: as §3, §4, §5

One may read the Kd as a measure of binding affinity in units of concentration.

T3 sequence (P08138 with tags, fused parts or gaps limits assumed): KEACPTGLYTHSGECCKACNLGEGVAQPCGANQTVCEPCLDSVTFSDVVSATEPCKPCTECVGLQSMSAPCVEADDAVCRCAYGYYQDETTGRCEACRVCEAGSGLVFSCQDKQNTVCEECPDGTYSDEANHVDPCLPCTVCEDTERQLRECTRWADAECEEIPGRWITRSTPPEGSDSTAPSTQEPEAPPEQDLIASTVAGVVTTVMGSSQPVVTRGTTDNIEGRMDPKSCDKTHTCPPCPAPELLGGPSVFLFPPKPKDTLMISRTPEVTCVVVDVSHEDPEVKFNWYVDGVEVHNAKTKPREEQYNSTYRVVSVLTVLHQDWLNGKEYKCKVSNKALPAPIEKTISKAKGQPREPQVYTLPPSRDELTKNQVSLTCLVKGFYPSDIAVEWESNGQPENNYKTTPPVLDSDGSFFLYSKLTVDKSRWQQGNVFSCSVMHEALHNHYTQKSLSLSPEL
T5 sequence (P04629 34-407 isoform P04629-2 limits assumed): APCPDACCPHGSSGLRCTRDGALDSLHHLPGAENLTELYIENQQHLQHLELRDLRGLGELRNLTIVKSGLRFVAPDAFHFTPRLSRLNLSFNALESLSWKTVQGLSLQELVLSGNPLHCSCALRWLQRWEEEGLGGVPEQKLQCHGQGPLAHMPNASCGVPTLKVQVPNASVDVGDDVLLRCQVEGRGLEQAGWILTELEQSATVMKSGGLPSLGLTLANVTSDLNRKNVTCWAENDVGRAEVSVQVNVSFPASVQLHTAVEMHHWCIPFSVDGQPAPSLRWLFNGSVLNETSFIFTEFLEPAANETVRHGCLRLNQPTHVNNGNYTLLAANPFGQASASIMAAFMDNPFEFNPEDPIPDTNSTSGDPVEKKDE

Regarding RIFRSSDFAKNF (listed as Homo Sapiens), in assay [1], the “direct interaction with immobilized pro-dom-NGF” value is “direct binding”. Further, in assay [2], the “direct interaction with immobilized pro-dom-BDNF” value is reported as “direct binding” and the “affinity towards pro-dom-BDNF compared with pro-dom-NGF” value is “higher affinity of the peptides towards BDNF than NGF”.

On to “proNGF: Human recombinant proNGF produced and purified in E. coli”, for which the Kd in assay [3] was around 12 nM.

As for “RSSDFAKNFVQTDLPF (listed as Homo Sapiens)”, the “direct interaction with immobilized pro-dom-NGF” value in assay [1] is recorded as “direct binding”. Besides, in assay [2], the “direct interaction with immobilized pro-dom-BDNF” value is on record as “direct binding” and the “affinity towards pro-dom-BDNF compared with pro-dom-NGF” value is recorded as “higher affinity of the peptides towards BDNF than NGF”. Also, the “inhibition of Sortilin binding to immobilized pro-dom-BDNF” value in assay [4] (300 uM peptide, 390 nM wild-type Sortilin domain, CaHBS buffer) was around 66%. For the same molecule, in assay [4] (FIG. 19, + peptide), the “competition of sortilin binding to immobilized pro-dom-BDNF” value is recorded as “significantly inhibited”.

B1: proNGF propeptide: human NGF-propeptide expressed in E. coli (protein)
chain: T1 sequence (P01138 19-121 A35V)
For B1, the “Kd for binding to TrkA” value in assay [5] is “no detectable binding”. Also, the “Kd for binding to p75” value in assay [3] is reported as “no detectable binding”. In addition, in assay [6], the “inhibition of binding of 200 nM proNGF to immobilized Sortilin” value is recorded as around 85%. Further, in assay [7], the Kd was around 8 nM.
